{"source": "paper PMC8402755", "biological_target": "HIV-1 RT (HIV-1, UniProt P03366;P03366 600-1159;600-1039)", "assay": "off-rate (dissociation with trap); dissociates much more slowly than from dsDNA N1", "conditions": "protein: recombinant; copies: 1;1; label: 5'-32P on the 33 nt DNA primer; 33 nt DNA primer on 50 nt RNA template; template 5' overhang 15 nt, 3' overhang 2 nt"}
{"binder": "D33-R50 RNA/DNA hybrid primer-template (DNA:RNA) DNA: TCCCCGGGTACCGAGCTCGAATTCGCCCTATAG RNA: UUGUAAUACGACUCACUAUAGGGCGAAUUCGAGCUCGGUACCCGGGGAUC", "values": [{"measurement": "binding result", "result": "binds"}]}
